B1: TPR t1 (parent)
chain: GACCAAUCUGCCCUCAGAGCUCGAGAACAUCUUCGGAUGCAGAGGAGGCAGGCUUCGGUGGCGCGAUAGCGCCAACGUCCUCAACCUCCAAUGCAUCCCACCACAUGAUGAUGCCUGAAGAGCCUUGGUUUUUUG

Variants of: B1
Test: polymerase ribozyme fitness, log enrichment relative to wild type (log ratio); higher = more active; in vitro selection for triplet polymerase activity
Outline: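 PCR was used to build mutant libraries for each subunit of a heterodimeric triplet polymerase ribozyme, which were then transcribed. A single in vitro selection round, in triplicate, used a frozen incubation at −7 °C and recovered extended constructs by gel excision, streptavidin beads and RT-PCR. Fitness is the logarithm of genotype enrichment relative to wild-type enrichment, averaged over replicates with inverse-variance weights. The logarithm is base 2, and after Illumina sequencing only genotypes with ≥10 input reads and ≥1 read per output were kept.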

**Q.** For GACCAAUCUGCCCUUAGAGCUCGAGAACAUCUUCGGAUGCAGAGGAGGCAGGCUUCGGUGGCGCGAUAGCGCCAACGUCCUCAACCUCCAAUGCAUCCCACCACAUGAUGAUGCCUGAAGAGCCUUGGUUUUUUU [C15U G135U], which “polymerase ribozyme fitness (log ratio)” value is on record?
**A.** -2.12

**Q.** With GACCAAUCUGCCCUUAGAGCUCGAGAACAUCCUCGGAUGCAGAGGAGGCAGGCUUCGGUGGCGCGAUAGCGCCAACGUCCUCAACCUCCAAUGCAUCCCACCACAUGAUGAUGCCUGAAGAGCCUUGGUUUUUUG [C15U U32C] as the variant, how does the “polymerase ribozyme fitness (log ratio)” value read?
**A.** -1.42

**Q.** With GACCAAUCUGCCCUUAGAGCUCGAGAACAUCUUCGGAUGCAGAGGAGGCAGGCUUCGGUGGCGCGAUAGCGCCAACGUCCUCAACCUCCAAUGCAACCCACCACAUGAUGAUGCCUGAAGAGCCUUGGUUUUUUG [C15U U96A] as the variant, how does the “polymerase ribozyme fitness (log ratio)” value read?
**A.** -1.57

**Q.** With GACCAAUCUGCCCUCCGAGCUCGAGAACAUCUUCGGAUGCAGAGGAGGCAGGAUUAGGUAGCGCGAUAGCGCCAACGUCCUCAACCUCCAAUGCAUCCCACCACAUGAUGAUGCCUGAAGAGCCUUGGUUUUUUG [A16C C53A C56A G60A] as the variant, how does the “polymerase ribozyme fitness (log ratio)” value read?
**A.** -4.12

**Q.** For GACCAAUCUGCCCUUAGAGCUCGAGAACAUCUGCGGAUGCAGAGGAGGCAGGCUUCGGUGGCGCGAUAGCGCCAACGUCCUCAACCUGCAAUGCAUCCCACCACAUGAUGAUGCGUGAAGAGCCUUGGUUUUUUG [C15U U33G C88G C115G], which “polymerase ribozyme fitness (log ratio)” value is on record?
**A.** -6.42

**Q.** With GACCAAUCUGCCCUCCGAGCUUGAGAACAUCUUCGGAUGCAGAGGAGGCAGGCUUCGGUGGCGCGAUAGCGCCAACGUCCUCAACCUCCAAUGCAUCCCACCACAUGAUGAUGCCUGAAGAGCCUUGGUUUUUUG [A16C C22U] as the variant, how does the “polymerase ribozyme fitness (log ratio)” value read?
**A.** -5.8

**Q.** With GACCAAUCUGCCCUUAGAGCUCGAGAACAUCUUCGGAUGCAGAGGAGGCAGGCUUCGGUGGCGCGAUAGCGCCAACGCGCUCAACCUCCAAUGCAUCCCACCACAUGAUGAUGCCUGAAGAGCGUUGGUUAUUUG [C15U U78C C79G C124G U131A] as the variant, how does the “polymerase ribozyme fitness (log ratio)” value read?
**A.** 0.897

**Q.** Which “polymerase ribozyme fitness (log ratio)” value does the source give for GACCAAUCUGCCCUCCGAGCUCGAGAACAUCUUCGGAUGCAGAGGAGGCAGGCUUGGGUGGCGCGAUAGCGCCAACGUCCUCAACCUCCAAUGCAUCCCACCACAUGAUGAUGCCUGAAGCGCCUUGGUUUUUUG [A16C C56G A121C] here?
**A.** -1.27

**Q.** Which “polymerase ribozyme fitness (log ratio)” value does the source give for GACCAAUCUGCCCUCCGAGCUCGAGAACAUCUUCGGAUGCAGAGGAGGCAGGCUUCGGUGGCGUGAUAGCGCCAACGCCCUCAACCACCAAUGCAUCCCACCACAUGAUGAUUCCAGAAGAGCCUUGGUUUUUUG [A16C C64U U78C U87A G113U U116A] here?
**A.** -7.76

**Q.** With GACCAAUCUGCCCUCCGCGCUCGAGAACAUCUUCGGAUGUAGAGGAGGCAGGCUUCGGUGGCGCGAUAGCUCCAACGUUCUCAACCUCCAAUGCAUCCCACCACAUGAUGAUGCCUGAAGAGCCUUGGUUUUUUG [A16C A18C C40U G71U C79U] as the variant, how does the “polymerase ribozyme fitness (log ratio)” value read?
**A.** -5.22

**Q.** For GACCAAUCUGCCCUCCGAGCUCGAGAGCAUCUUCGGAUGCAGAGGAGGCAGGCUUCGGUGACGCGAUAGCGCCAACGUCCUCAACCUCCAAUGCAUCCCACCACAUGAUGACGCCUGAAGAGCCUUGGUUUUUUG [A16C A27G G61A U112C], which “polymerase ribozyme fitness (log ratio)” value is on record?
**A.** -1.49

**Q.** For GACCAAUCUGCCCUUAGAGCUCGAGAACAUCUUCGGAUGCAGAGGAGGCAGGCUUCGGUGGCGCGAUAGCGCCAACGUCCUCAACCUCCAAUGCAUCCCACCACAUGAUGAUGCCUGAAGAGCCUUGGUUUUAUG [C15U U133A], which “polymerase ribozyme fitness (log ratio)” value is on record?
**A.** -1.79

**Q.** For GACCAAUCUGCCCUUAGAGCUCGAGAACAUCUUCGGAUGCAGAGGAGGCAGGCUUCGGUGGCGCGAUAGCGCCAACGUCCUCAACCUCCAAUGCAUCCCACCACAUGAUGAUGCCUGAAGAGCCUUGGUUUUGUG [C15U U133G], which “polymerase ribozyme fitness (log ratio)” value is on record?
**A.** -2.11

**Q.** With GACCAAUCUGCCCUCCGAGCUCGAGAACAUCUUCGGAUGCAGAGGAGGCAGGCUUCGGUGGUGCGAUAGCGCCAACGUCCUCCACCUGCAAUGCAUCCCACCACAUGAUGAUGCCUGAAGAGCCUUGGUUUUUUG [A16C C62U A83C C88G] as the variant, how does the “polymerase ribozyme fitness (log ratio)” value read?
**A.** -2.71

**Q.** For GACCAAUCUGCCCUCCGAGCUCGAGAACAUCUUCGGAUGCAGAGGAGGCUGGCAUCGGUGGCGCGAUAGCGCCAACGUCCUCAACGUCCAAUGCAUCCCACCACAUGAUGAUGCCUGAAGAGCCUUGGUUUUUUG [A16C A50U U54A C86G], which “polymerase ribozyme fitness (log ratio)” value is on record?
**A.** -5.88

**Q.** Which “polymerase ribozyme fitness (log ratio)” value does the source give for GACCAAUCUGCCCUUAGAGCUCGAGAACAUCUUCGGAUGCAGAGGAGGCAGGCUUCGGUGGCGCGAUAGCGCCAACGUCCUCAACCUCCAAUGCAUCCCACCACAUGAUGAUGCCUGAAGAGCCUUGCUUUUUUG [C15U G128C] here?
**A.** -3.18

**Q.** Which “polymerase ribozyme fitness (log ratio)” value does the source give for GACCAAUCUGCCCUUAGAGCUCGAGAACAUCUUCGGAUGCAGAGGAGGCAGGCUUCGGUGGCGCGAUAGCGCCAACGUCCUCAACCUCCAAUGCACCCCACCACAUGAUGAUGCCUGAAGAGCCUUGGAUUUUUG [C15U U96C U129A] here?
**A.** -2.88

**Q.** Which “polymerase ribozyme fitness (log ratio)” value does the source give for GACCAAUCUGCCCUCCGAGCUCGAGAACAUCUUCGGAUGCAGAGGAGGCAGGCUUCGGUGGCGCGAUAGCGCCAACGUGCUCAACCUCCAAUGCAUCCCACCACAUGAUGAUGCCUGAAGAGCCUUGGUUUUUUG [A16C C79G] here?
**A.** -4.14

**Q.** Which “polymerase ribozyme fitness (log ratio)” value does the source give for GACCAAUCUGCCCUCCGAGCUCGAGAACAUCUUCGGAUGCAGAGGAGGAAGGCUUCGGUGGCGCGAUAGCGCCAACGUCCUCAACCUCCAAUGCAUCCCACCACAUGAUGAUGCCUGAAGAGCCUUGGUUUUUUG [A16C C49A] here?
**A.** -3.04

**Q.** Which “polymerase ribozyme fitness (log ratio)” value does the source give for GACCAAUCUGCCCUCCGAGCUCGAGAACAUCUUCGGAUGCAGAGGAGGCAGGCUUCGGUGGCGCGAUAGCGCCAACGUCCUCCACCUCCAAUGCAUCCCACCACACGAUGAUGCUUGAAGAGCCCUGGUUUUUUG [A16C A83C U106C C115U U125C] here?
**A.** -2.38

**Q.** For GACCAAUCUGCCCUCCGAGCUCGAGAACAUCUUCGGAUGCAGAGGAGGCAGGCUUCGGUGGCGCGAUAGUGCCAACGUCCUCAAGCUCCAAUGCAUCCCACCACAUGAUGAUGCCUGAAGAGCCUUGGUUUUUUG [A16C C70U C85G], which “polymerase ribozyme fitness (log ratio)” value is on record?
**A.** -3.97
